For this experiment, the target named is T1, human recombinant FGF-2 (human, UniProt P09038 143-288).
T1 construct: basic fibroblast growth factor (FGF-2), human recombinant; also called basic fibroblast growth factor; source: bought: R&D Systems
The experiment can be described thus: grating-coupled interferometry; Creoptix WAVEdelta, 4PCP-STA chip; biotinylated CXCL9(74-103) captured on streptavidin; FGF-2 as analyte 4.53 nM-1.10 µM in duplicate; 25 °C; PBS with 30 mM NaCl, 15 mM L-arginine, 0.015% Tween 20, 0.05 mg/mL BSA, pH 7.4; 1:1 binding model with bulk correction. The conditions noted are these: both partners purified.

Where no end group is shown, it is not given here. The star is where a group is joined. Biotin = O=C1N[C@H]2[C@H](CS[C@H]2CCCCC(=O)*)N1

The text below walks through data of paper PMC8534003 (Cancers, 2021).

T1 sequence (P09038 143-288): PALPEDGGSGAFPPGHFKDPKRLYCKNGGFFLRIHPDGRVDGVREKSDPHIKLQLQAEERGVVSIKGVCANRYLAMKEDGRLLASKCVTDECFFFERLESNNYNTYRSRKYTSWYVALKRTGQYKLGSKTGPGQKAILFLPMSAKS

B1: biotinylated CXCL9(74-103) (peptide)
peptide: Biotin-KKKQKNGKKHQKKKVLKVRKSQRSRQKKTT
notes: Site-specifically biotinylated at the NH2-terminus with biotin-p-nitrophenyl ester; source: synthetic peptide (Fmoc solid-phase synthesis)
In the case of B1, the Kd worked out at 100 nM.
